The text below walks through data of US20090075904A1 (CAMPINA NEDERLAND HOLDING B V, published 2009).

Assay [1] has as its target T1, Dipeptidyl peptidase IV (DPP-IV) (UniProt P22411 38-766, limits assumed). Briefly: cell-based or functional assay.
Assay [2] addresses T1, Dipeptidyl peptidase IV (DPP-IV). Briefly: cell-based or functional assay. This is another data set of the same source.

T1 sequence (P22411 38-766 limits assumed): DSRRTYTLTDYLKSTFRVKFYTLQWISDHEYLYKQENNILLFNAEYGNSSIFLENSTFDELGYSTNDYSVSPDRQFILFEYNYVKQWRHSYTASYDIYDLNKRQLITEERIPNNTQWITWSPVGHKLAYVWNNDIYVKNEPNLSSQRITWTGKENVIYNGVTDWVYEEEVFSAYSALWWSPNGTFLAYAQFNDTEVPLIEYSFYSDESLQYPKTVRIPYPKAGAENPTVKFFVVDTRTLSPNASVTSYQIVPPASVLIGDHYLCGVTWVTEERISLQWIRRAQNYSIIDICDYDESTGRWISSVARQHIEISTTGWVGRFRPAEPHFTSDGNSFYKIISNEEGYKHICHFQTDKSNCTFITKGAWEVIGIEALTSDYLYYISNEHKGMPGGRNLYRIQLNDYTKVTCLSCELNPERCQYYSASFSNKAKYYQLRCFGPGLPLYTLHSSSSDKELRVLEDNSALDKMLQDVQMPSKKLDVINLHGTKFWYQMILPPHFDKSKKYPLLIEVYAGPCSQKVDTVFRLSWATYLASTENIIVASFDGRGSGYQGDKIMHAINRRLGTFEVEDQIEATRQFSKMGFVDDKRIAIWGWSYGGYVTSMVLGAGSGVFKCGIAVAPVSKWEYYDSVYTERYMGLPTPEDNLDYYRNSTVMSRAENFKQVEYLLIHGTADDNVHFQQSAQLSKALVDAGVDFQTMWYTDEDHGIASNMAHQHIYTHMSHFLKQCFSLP

With GPFPIIV, the “RELATIVE POTENCY [%] (DPP-IV inhibition assay, Gly-Pro-p-nitroanilide conversion, on-line LC-BCD-MS)” value in assay [1] worked out at 9%.
Still for that read-out and setting: in the case of VPLGTQ it was 55%.
Consider LPL, for which, in assay [2], the “IC50 of DPP-IV inhibition (estimated from relative potency)” value was about 5 µM. In addition, in assay [1], the “RELATIVE POTENCY [%] (DPP-IV inhibition assay, Gly-Pro-p-nitroanilide conversion, on-line LC-BCD-MS)” value came to 100%.
As to LPLP, in assay [1], the “RELATIVE POTENCY [%] (DPP-IV inhibition assay, Gly-Pro-p-nitroanilide conversion, on-line LC-BCD-MS)” value came out at 11%.
Take APFPEVF: the “IC50 of DPP-IV inhibition (estimated from relative potency)” value in assay [2] was about 120 µM. The “RELATIVE POTENCY [%] (DPP-IV inhibition assay, Gly-Pro-p-nitroanilide conversion, on-line LC-BCD-MS)” value in assay [1] was 6%.
YVPEPF: the “RELATIVE POTENCY [%] (DPP-IV inhibition assay, Gly-Pro-p-nitroanilide conversion, on-line LC-BCD-MS)” value in assay [1] amounted to 20%.
Turning to IPI, the “IC50 of DPP-IV inhibition (estimated from relative potency)” value in assay [2] is about 5 µM. Also, the “RELATIVE POTENCY [%] (DPP-IV inhibition assay, Gly-Pro-p-nitroanilide conversion, on-line LC-BCD-MS)” value in assay [1] came out at 100%.
For LPVPQ, the “RELATIVE POTENCY [%] (DPP-IV inhibition assay, Gly-Pro-p-nitroanilide conversion, on-line LC-BCD-MS)” value in assay [1] was found to be 28%.
Same read-out and setting: as for LPVPQK, the figure is 63%; as for PQSVLS, 20%; as for LPVP, 15%.
Take MPLW: the “RELATIVE POTENCY [%] (DPP-IV inhibition assay, Gly-Pro-p-nitroanilide conversion, on-line LC-BCD-MS)” value in assay [1] turned out to be 23%.
On to PFP, for which the “RELATIVE POTENCY [%] (DPP-IV inhibition assay, Gly-Pro-p-nitroanilide conversion, on-line LC-BCD-MS)” value in assay [1] amounted to 20%.
Same read-out and setting: in the case of VPYPQ it was 51%.
On the same count and under the same terms, in the case of GPFP it was 34%.
As to LPQYL, the “RELATIVE POTENCY [%] (DPP-IV inhibition assay, Gly-Pro-p-nitroanilide conversion, on-line LC-BCD-MS)” value in assay [1] is 26%.
For HPIK, in assay [2], the “IC50 of DPP-IV inhibition (estimated from relative potency)” value was about 120 µM. For the same molecule, in assay [1], the “RELATIVE POTENCY [%] (DPP-IV inhibition assay, Gly-Pro-p-nitroanilide conversion, on-line LC-BCD-MS)” value was 6%.
EMPFPK: in assay [1], the “RELATIVE POTENCY [%] (DPP-IV inhibition assay, Gly-Pro-p-nitroanilide conversion, on-line LC-BCD-MS)” value was found to be 12%.
Same read-out and setting: as for PLLQ, the figure is 37%; as for APFPE, 9%; as for KVLP, 98%.
